Data: US20090098106A1 (YEDA RESEARCH AND DEVELOPMENT, published 2009)
Each block holds one binder with its values, some of them ahead of it.

B1: HC8 (α7) subunit of the human 20S proteasome (other, UniProt P25788 1-255, looked up)
chain: MSSIGTGYDLSASTFSPDGRVFQVEYAMKAVENSSTAIGIRCKDGVVFGVEKLVLSKLYEEGSNKRLFNVDRHVGMAVAGLLADARSLADIAREEASNFRSNFGYNIPLKHLADRVAMYVHAYTLYSAVRPFGCSFMLGSYSVNDGAQLYMIDPSGVSYGYWGCAIGKARQAAKTEIEKLQMKEMTCRDIVKEVAKIIYIVHDEVKDKAFELELSWVGELTNGRHEIVPKDIREEAEKYAKESLKEEDESDDDNM
notes: Yeast two-hybrid: prey from a human bone marrow library, re-cloned into pGADT7; Co-immunoprecipitation: N-terminal HIS tag and/or C-terminal myc tag (pCDNA3); also called human C8

Legend:
[1] = biological target: T1, NIK-C-terminus (amino acids 624-947 of SEQ ID NO: 5) (human, UniProt Q99558 624-947); experiment: yeast two-hybrid, β-gal colour, strain SFY526 (bait NIK-C-ter, prey HC8)
T1 construct: Yeast two-hybrid bait in pGBKT7 (fusion partner not spelled out)
From the text: (§1) Yeast 2 Hybrid Screening Assays: NIK or its deletions were cloned into pGBKT7 vector as bait and the preys were re-cloned into pGADT7 vector for assay in the yeast strain SFY526. The system used for screening was the Matchmaker version III (clontech). The prey was pretransformed human bone marrow library (cat# HY4053AH) pooled from 51 males/females in the age range 22-70. It belongs to a new generation of 2 hybrid libraries that offers high stringent quadruple drop out (QDO) selection along with α-gal assay. Clones growing on plates without LEU, TRP, HIS and ADE were reconfirmed by α-gal assay. Plasmids of the positive clones were prepared by lysis of the yeast cells with detergent and mechanical stress followed by phenol extraction and ethanol precipitation of the DNA. Encoded inserts from the plasmids were amplified by PCR with the primers specific for the library vector pACT2.
(§2) A yeast 2 hybrid screening was effected using intact NIK cDNA (GenBank Accession No. Y10256; SEQ ID NO: 5), NIK-C-terminus (amino acids 624-947 of SEQ ID NO: 5) or NIK-N terminus (amino acids 1-367) as a prey. The most prevalent prey which was found in these screenings was the α7 subunit (HC8) (GenBank Accession No. XM_{—}050947). […]

[2] = biological target: T2, NF-κB inducing kinase (NIK), human, full length (human, UniProt Q99558 1-947); experiment: yeast two-hybrid, β-gal colour, strain SFY526 (bait NIK, prey HC8)
T2 construct: Yeast two-hybrid: cloned into pGBKT7 as bait (fusion partner not spelled out); Co-immunoprecipitation: N-terminal 6 myc tag (pCS3MTNIK) in 293T cells, or His tag in HeLa cells; also called intact NIK; wild type NIK
From the text: as §1, §2

[3] = biological target: T3, TRAF2 (UniProt Q12933 1-501, limits assumed); experiment: yeast two-hybrid, β-gal colour, strain SFY526
T3 sequence (looked up): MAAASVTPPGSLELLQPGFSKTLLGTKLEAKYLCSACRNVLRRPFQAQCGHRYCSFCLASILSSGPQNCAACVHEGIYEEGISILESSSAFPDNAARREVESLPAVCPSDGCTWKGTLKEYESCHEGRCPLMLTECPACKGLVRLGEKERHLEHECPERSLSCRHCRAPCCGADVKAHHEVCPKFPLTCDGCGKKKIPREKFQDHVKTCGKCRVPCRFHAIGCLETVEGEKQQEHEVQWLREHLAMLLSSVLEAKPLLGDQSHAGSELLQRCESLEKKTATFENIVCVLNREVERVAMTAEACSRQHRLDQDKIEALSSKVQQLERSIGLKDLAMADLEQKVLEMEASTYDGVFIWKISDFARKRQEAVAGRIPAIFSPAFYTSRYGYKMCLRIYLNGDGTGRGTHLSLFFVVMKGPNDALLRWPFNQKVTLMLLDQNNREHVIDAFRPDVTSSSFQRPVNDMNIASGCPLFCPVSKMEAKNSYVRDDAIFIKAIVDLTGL

[4] = biological target: B1; experiment: yeast two-hybrid, β-gal colour, strain SFY526 (bait NIK-N-ter, prey HC8)
From the text: as §1, §2

[5] = biological target: B1; experiment: co-immunoprecipitation from HeLa cells with anti-NIK monoclonal antibody, Western blot

T1 sequence (Q99558 624-947): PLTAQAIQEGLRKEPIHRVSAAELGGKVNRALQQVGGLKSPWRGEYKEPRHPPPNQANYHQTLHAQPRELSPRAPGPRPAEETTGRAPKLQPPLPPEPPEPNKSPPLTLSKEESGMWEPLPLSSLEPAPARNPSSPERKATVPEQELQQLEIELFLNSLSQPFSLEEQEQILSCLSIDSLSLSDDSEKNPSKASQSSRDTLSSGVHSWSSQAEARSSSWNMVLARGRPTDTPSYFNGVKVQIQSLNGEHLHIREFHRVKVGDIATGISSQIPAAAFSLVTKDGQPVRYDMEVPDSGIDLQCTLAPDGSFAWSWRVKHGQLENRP

Binder: B1
binding result [1]: binds | binding result [2]: binds

binding result [3]: no binding | binding result [4]: binds
B2: NIK-N terminus (amino acids 1-367) (other)
chain: MAVMEMACPGAPGSAVGQQKELPKPKEKTPPLGKKQSSVYKLEAVEKSPVFCGKWEILNDVITKGTAKEGSEAGPAAISIIAQAECENSQEFSPTFSERIFIAGSKQYSQSESLDQIPNNVAHATEGKMARVCWKGKRRSKARKKRKKKSSKSLAHAGVALAKPLPRTPEQESCTIPVQEDESPLGAPYVRNTPQFTKPLKEPGLGQLCFKQLGEGLRPALPRSELHKLISPLQCLNHVWKLHHPQDGGPLPLPTHPFPYSRLPHPFPFHPLQPWKPHPLESFLGKLACVDSQKPLPDPHLSKLACVDSPKPLPGPHLEPSCLSRGAHEKFSVEEYLVHALQGSVSSSQAHSLTSLAKTWAARGSRS
notes: Yeast two-hybrid bait in pGBKT7

binding result [5]: no binding
B3: NIK kinase domain (kinase motif, amino acids 400-650) (other)
chain: ATHQLRLGRGSFGEVHRMEDKQTGFQCAVKKVRLEVFRAEELMACAGLTSPRIVPLYGAVREGPWVNIFMELLEGGSLGQLVKEQGCLPEDRALYYLGQALEGLEYLHSRRILHGDVKADNVLLSSDGSHAALCDFGHAVCLQPDGLGKSLLTGDYIPGTETHMAPEVVLGRSCDAKVDVWSSCCMMLHMLNGCHPWTQFFRGPLCLKIASEPPPVREIPPSCAPLTAQAIQEGLRKEPIHRVSAAELGGK
notes: also called kinase motif of NIK
